Reference: patent US20230212587A1, “Mutant Hydroxyphenylpyruvate Dioxygenase Polypeptide, Encoding Gene Thereof and Use Therefor” (Beijing Dabeinong Biotechnology Co., Ltd., priority 2019, published 2023)

B1: TaHPPD2-02: native HPPD of Triticum aestivum ecotype 2, UniProt Q45FE8, SEQ ID NO: 183 (protein, listed as Triticum aestivum)
chain: MPPTPTTPAATGAGAAAAVTPEHARPRRMVRFNPRSDRFHTLSFHHVEFWCADAASAAGRFAFALGAPLAARSDLSTGNSVHASQLLRSGNLAFLFTAPYANGCDAATASLPSFSADAARRFSADHGLAVRSIALRVADAAEAFRASVDGGARPAFSPVDLGRGFGFAEVELYGDVVLRFVSHPDDTDVPFLPGFEGVSNPDAVDYGLTRFDHVVGNVPELAPAAAYVAGFAGFHEFAEFTTEDVGTAESGLNSMVLANNSEGVLLPLNEPVHGTKRRSQIQTFLEHHGGSGVQHIAVASSDVLRTLREMRARSAMGGFDFLPPRCRKYYEGVRRIAGDVLSEAQIKECQELGVLVDRDDQGVLLQIFTKPVGDRPTLFLEMIQRIGCMEKDERGEEYQKGGCGGFGKGNFSELFKSIEDYEKSLEAKQSAAVQGS
modifications: TaHPPD2 Amino Acid Sequence
B2: TaHPPD3-02: native HPPD of Triticum aestivum ecotype 3, UniProt A0A3B6PKV0, SEQ ID NO: 189 (protein, listed as Triticum aestivum)
chain: MPPTPTTPAATGAAAAAAVTPEHARPRRMVRFNPRSDRFHTLAFHHVEFWCADAASAAGRFAFALGAPLAARSDLSTGNSVHASQLLRSGNLAFLFTAPYANGCDAATASLPSFSADAARRFSADHGLAVRSIALRVADAAEAFRASVDGGARPAFSPVDLGRGFGFAEVELYGDVVLRFVSHPDDTDVPFLPGFEGVSNPDAVDYGLTRFDHVVGNVPELAPAAAYVAGFAGFHEFAEFTTEDVGTAESGLNSMVLANNSEGVLLPLNEPVHGTKRRSQIQTFLEHHGGPGVQHIAVASSDVLRTLREMRARSAMGGFDFLPPPLPKYYEGVRRIAGDVLSEAQIKECQELGVLVDRDDQGVLLQIFTKPVGDRPTLFLEMIQRIGCMEKDERGEEYQKGGCGGFGKGNFSELFKSIEDYEKSLEAKQSAAVQAS
modifications: TaHPPD3 Amino Acid Sequence
B3: TaHPPD2m-F372A-02: Triticum aestivum ecotype 2 HPPD mutant F372A, SEQ ID NO: 186 (protein)
chain: MPPTPTTPAATGAGAAAAVTPEHARPRRMVRFNPRSDRFHTLSFHHVEFWCADAASAAGRFAFALGAPLAARSDLSTGNSVHASQLLRSGNLAFLFTAPYANGCDAATASLPSFSADAARRFSADHGLAVRSIALRVADAAEAFRASVDGGARPAFSPVDLGRGFGFAEVELYGDVVLRFVSHPDDTDVPFLPGFEGVSNPDAVDYGLTRFDHVVGNVPELAPAAAYVAGFAGFHEFAEFTTEDVGTAESGLNSMVLANNSEGVLLPLNEPVHGTKRRSQIQTFLEHHGGSGVQHIAVASSDVLRTLREMRARSAMGGFDFLPPRCRKYYEGVRRIAGDVLSEAQIKECQELGVLVDRDDQGVLLQIATKPVGDRPTLFLEMIQRIGCMEKDERGEEYQKGGCGGFGKGNFSELFKSIEDYEKSLEAKQSAAVQGS
modifications: TaHPPD2m-F372A Amino Acid Sequence
B4: NtHPPD-02: native Nicotiana tabacum HPPD, SEQ ID NO: 111 (protein, listed as Nicotiana tabacum)
chain: MGKLETVTTTSAAAADDSSELTTNFKLVGFKNFIRTNPRSDFFSVKSFHHIEFWCGDATNTARRFSWSLGMPIAAKSDLSTGNSVHASYLLRPVSGSLQFLFTAPYSPSISTPSSAAIPSFSTSTHRSFTTTHGLGVRAVALEVENAYTAFSASVSRGAKPMFEPVTIDEQVAMAEVHLYGDVVLRFVSYLKDADNLVFLPGFEAMDETASYKELDYGIRRLDHAVGNVPELGPVVDYIKRFTGFHEFAEFTAEDVGTAESGLNSMVLANNDETVLLPLNEPVYGTKRKSQIQTYLEHNEGAGVQHLALVTEDIFKTLTEMRKRSGVGGFEFMPSPPPTYYKNLKNRAGDVLSDEQILACEELGILVDRDDQGTLLQIFTKPVGDRPTIFIEIIQRIGCMLKDGKGQVYQKGGCGGFGKGNFSELFRSIEEYEKTLEAKQANQVAAA
modifications: NtHPPD Amino Acid Sequence
B5: TaHPPD1m-F372A-02: Triticum aestivum ecotype 1 HPPD mutant F372A, SEQ ID NO: 180 (protein)
chain: MMNAHANLALAALAFPAHMPNSKSSHIRSRRTRRPLLPLTMAAHPPIRTNIGMSTHGSASGGGEQAGISSTDRFRMIDFHHVEFWCADAASAAARFSFGLGVPLAAESGLSTGNTAHASHLLHSRSGSLALLFSAPYAQGDAVTASVPSFDADAARRFTADHGLAVRAMAVRVPDAGEAFRTSVDAGARPSFAPAELGHGFELAEVQLYGDVVLRFVSHPDDTAIPFLPGFGSVPSSGATPDYGLTRFDHIVGDVPHLAPVAAYIAGFTGFHEFSRFTADQVGTAESSLNVVVLANNSENVLLTVVEPVHGTKRRSQVQTYLDHHGGPGVQHLAMASNDVLGTLRKIRGRSTMGGFELLPPPPASYYDDVRRRAGDVLSEAQIKGCQELGVRVDKDDHGGVVLQIATKAAGDRPTLLLEFIQRIGCMDKDENGQEYQRGGCGGFGQGNVTELFKSIEDYEKSLDASARLAA
modifications: TaHPPD1m-F372A Amino Acid Sequence

Tested on: Arabidopsis thaliana T1 plants
Assay: Topramezone tolerance of transgenic Arabidopsis thaliana T1 plants (pesticide damage grade by bleached leaf area, score, resistance evaluation)
Format: in vivo
Settings: for Classification and statistics of pesticide damage grade: Grade 0 / Classification and statistics of pesticide damage grade: Grade 1 / Classification and statistics of pesticide damage grade: Grade 2 / Classification and statistics of pesticide damage grade: Grade 3: number of plants; for Classification and statistics of pesticide damage grade Grade 0 / Classification and statistics of pesticide damage grade Grade 1 / Classification and statistics of pesticide damage grade Grade 2 / Classification and statistics of pesticide damage grade Grade 3: number of plants (of 16) in this grade
Method in brief: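 Eighteen days after sowing, wild-type and HPPD-transgenic T1 Arabidopsis receive a topramezone spray at 1×, 2× or 4× field rate (25–100 g ai/ha) or water. Seven days later each plant is graded by its proportion of bleached leaf area.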

[1] = topramezone 25 g ai/ha (1x), HPPDs from ecotypes of Triticum aestivum
[2] = topramezone 100 g ai/ha (4x), HPPDs from ecotypes of Triticum aestivum
[3] = HPPDs from different species, topramezone 25 g ai/ha (1x), 7 DAT
[4] = HPPDs from different species, topramezone 100 g ai/ha (4x), 7 DAT

Molecule	Resistance evaluation [1]	Scores [1]	Classification and statistics of pesticide damage grade: Grade 0 [1]	Classification and statistics of pesticide damage grade: Grade 1 [1]	Classification and statistics of pesticide damage grade: Grade 2 [1]	Classification and statistics of pesticide damage grade: Grade 3 [1]	Resistance evaluation [2]	Scores [2]	Classification and statistics of pesticide damage grade: Grade 0 [2]	Classification and statistics of pesticide damage grade: Grade 1 [2]	Classification and statistics of pesticide damage grade: Grade 2 [2]	Classification and statistics of pesticide damage grade: Grade 3 [2]	also measured
B1	non-resistant (non-resistant plants (scores 68-100))	100	0	0	0	16	non-resistant (non-resistant plants (scores 68-100))	100	0	0	0	16	–
B2	non-resistant (non-resistant plants (scores 68-100))	100	0	0	0	16	non-resistant (non-resistant plants (scores 68-100))	100	0	0	0	16	–
B3	highly resistant (highly resistant plants (scores 0-15))	0	16	0	0	0	moderately resistant (moderately resistant plants (scores 16-33))	17	8	8	0	0	–
B4	–	–	–	–	–	–	–	–	–	–	–	–	Classification and statistics of pesticide damage grade Grade 0 [3]: 0; Classification and statistics of pesticide damage grade Grade 1 [3]: 0; Classification and statistics of pesticide damage grade Grade 2 [3]: 0; Classification and statistics of pesticide damage grade Grade 3 [3]: 16; Classification and statistics of pesticide damage grade Grade 0 [4]: 0; Classification and statistics of pesticide damage grade Grade 1 [4]: 0; Classification and statistics of pesticide damage grade Grade 2 [4]: 0; Classification and statistics of pesticide damage grade Grade 3 [4]: 16; Scores (HPPDs from different species, score for pesticide damage 0-100, topramezone 25 g ai/ha (1x), 7 DAT): 100; Scores (HPPDs from different species, score for pesticide damage 0-100, topramezone 100 g ai/ha (4x), 7 DAT): 100; Resistance evaluation [3]: non-resistant (non-resistant plants (scores 68-100)); Resistance evaluation [4]: non-resistant (non-resistant plants (scores 68-100))
B5	highly resistant (highly resistant plants (scores 0-15))	0	16	0	0	0	highly resistant (highly resistant plants (scores 0-15))	2	15	1	0	0	–
